Biological target: nerve growth factor (NGF) (UniProt P01139 P01139:122-241)
Experiment: filter
Conditions: chain copies: 2

nerve growth factor (NGF), sequence (P01139 122-241, one chain of several): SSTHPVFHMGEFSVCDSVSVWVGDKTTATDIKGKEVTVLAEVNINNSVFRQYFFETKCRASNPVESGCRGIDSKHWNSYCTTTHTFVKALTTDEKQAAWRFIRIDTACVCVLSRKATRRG

B1: hsngf.a (ssRNA)
RNA: GGGAGCUCAGAAUAAACGCUCAACUCAUGGAGCGCAAGACGAAUAGCUACAUAUUCGACAUGAGGCCCGGAUCCGGC
- binding result: binds
